Test results published in patent US20150258192A1, “COMPOSITIONS AND METHODS FOR PREVENTING OR TREATING CHRONIC LUNG ALLOGRAFT DYSFUNCTION (CLAD) AND IDIOPATHIC PULMONARY FIBROSIS (IPF)” (priority 2014, published 2015).
No end group written: not given here.

How the values were obtained:
Assay in all cases: Kinase Profiling Assay
Format in all cases: biochemical
Details in all cases: peptide 100 μM
DCAMKL2(h) = biological target: T1, DCAMKL2(h) (Homo sapiens, UniProt Q8N568)
T1 sequence (Q8N568 1-766): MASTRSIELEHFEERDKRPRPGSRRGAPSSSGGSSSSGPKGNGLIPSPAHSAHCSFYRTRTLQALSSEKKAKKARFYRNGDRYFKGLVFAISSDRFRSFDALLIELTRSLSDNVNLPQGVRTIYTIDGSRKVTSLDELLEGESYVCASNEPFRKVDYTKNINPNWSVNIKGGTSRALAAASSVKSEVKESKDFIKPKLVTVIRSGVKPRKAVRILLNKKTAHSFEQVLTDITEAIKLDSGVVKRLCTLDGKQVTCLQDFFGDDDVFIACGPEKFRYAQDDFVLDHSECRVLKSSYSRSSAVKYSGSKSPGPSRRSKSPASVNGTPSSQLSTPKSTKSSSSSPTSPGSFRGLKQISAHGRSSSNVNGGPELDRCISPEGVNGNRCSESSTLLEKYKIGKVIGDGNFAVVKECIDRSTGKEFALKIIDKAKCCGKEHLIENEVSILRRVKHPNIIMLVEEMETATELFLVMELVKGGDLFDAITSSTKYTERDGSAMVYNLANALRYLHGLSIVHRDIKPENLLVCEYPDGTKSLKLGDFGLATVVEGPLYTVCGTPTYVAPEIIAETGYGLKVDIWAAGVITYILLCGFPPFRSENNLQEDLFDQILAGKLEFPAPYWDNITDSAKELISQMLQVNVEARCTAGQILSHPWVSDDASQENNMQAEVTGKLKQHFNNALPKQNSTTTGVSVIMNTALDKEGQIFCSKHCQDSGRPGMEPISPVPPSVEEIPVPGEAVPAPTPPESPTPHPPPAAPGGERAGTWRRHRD
Method: (§1) Every kinase activity measurement was conducted in duplicate.
(§2) Specifically, in these assays, a positively charged substrate is phosphorylated with a radiolabeled phosphate group from an ATP if the kinase is not inhibited by an inhibitor peptide. The positively charged substrate then is attracted to a negatively charged filter membrane, quantified with a scintillation counter, and compared to a 100% activity control.
(§3) In addition to determining the IC50 of the compound, the specificity of MK2 inhibitory peptides was assessed by examining activities of all 266 human kinases available for testing in the Millipore kinase profiling service (Table 1).

IRAK1(h) = biological target: T2, IRAK1(h) (Homo sapiens, UniProt P51617)
T2 construct: purchased Millipore
Method: as §1, §2, §3

PKCγ(h) = PKCγ(h) (Homo sapiens, UniProt P05129)
Method: as §1, §2, §3

PKCδ(h) = PKCδ(h) (Homo sapiens, UniProt Q05655)
Method: as §1, §2, §3

PKCβI(h) = PKCβI(h) (Homo sapiens, UniProt P05771)
Method: as §1, §2, §3

LOK(h) = biological target: T3, LOK(h) (Homo sapiens, UniProt O94804)
T3 construct: purchased Millipore
Method: as §1, §2, §3

STK33(h) = biological target: T4, STK33(h) (Homo sapiens, UniProt Q9BYT3)
T4 construct: purchased Millipore
Method: as §1, §2, §3

CHK2(h) = CHK2(h) (Homo sapiens, UniProt O96017)
Method: as §1, §2, §3

cKit(V560G)(h) = cKit(V560G)(h) (Homo sapiens, UniProt P10721, V560G)
Method: as §1, §2, §3

JAK3(h) = biological target: T5, JAK3(h) (Homo sapiens, UniProt P52333)
T5 construct: purchased Millipore
T5 sequence (P52333 1-1124): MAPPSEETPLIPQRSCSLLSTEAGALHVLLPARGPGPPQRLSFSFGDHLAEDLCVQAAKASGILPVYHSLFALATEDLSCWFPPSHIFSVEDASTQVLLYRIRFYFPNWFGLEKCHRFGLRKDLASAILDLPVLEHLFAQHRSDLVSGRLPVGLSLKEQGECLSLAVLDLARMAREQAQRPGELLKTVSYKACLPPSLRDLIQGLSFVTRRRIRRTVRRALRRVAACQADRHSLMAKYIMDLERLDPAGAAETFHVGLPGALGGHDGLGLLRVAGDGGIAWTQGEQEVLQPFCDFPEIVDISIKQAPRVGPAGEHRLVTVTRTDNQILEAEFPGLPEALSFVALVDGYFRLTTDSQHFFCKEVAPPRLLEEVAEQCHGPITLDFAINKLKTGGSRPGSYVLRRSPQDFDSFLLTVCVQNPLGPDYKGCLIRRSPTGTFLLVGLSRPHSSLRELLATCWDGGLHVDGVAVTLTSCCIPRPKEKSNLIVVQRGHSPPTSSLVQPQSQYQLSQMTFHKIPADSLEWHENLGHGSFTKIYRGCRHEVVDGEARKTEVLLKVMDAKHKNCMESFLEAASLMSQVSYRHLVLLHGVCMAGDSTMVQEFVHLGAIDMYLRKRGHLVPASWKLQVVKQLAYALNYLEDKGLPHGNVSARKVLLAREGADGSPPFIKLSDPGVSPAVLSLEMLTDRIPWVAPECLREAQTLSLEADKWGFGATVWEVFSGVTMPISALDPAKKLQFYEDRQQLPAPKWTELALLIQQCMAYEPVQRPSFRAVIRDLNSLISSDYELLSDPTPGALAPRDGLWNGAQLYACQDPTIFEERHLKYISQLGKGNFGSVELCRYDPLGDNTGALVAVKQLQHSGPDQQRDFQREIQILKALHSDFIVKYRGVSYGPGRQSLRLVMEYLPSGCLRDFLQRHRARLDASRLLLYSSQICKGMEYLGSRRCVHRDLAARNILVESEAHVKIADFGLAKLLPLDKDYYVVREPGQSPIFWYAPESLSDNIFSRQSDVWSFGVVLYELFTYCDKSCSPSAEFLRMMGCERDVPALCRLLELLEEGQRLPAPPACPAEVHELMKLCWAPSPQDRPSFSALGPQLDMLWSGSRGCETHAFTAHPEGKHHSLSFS
Method: as §1, §2, §3

ErbB4(h) = ErbB4(h) (Homo sapiens, UniProt Q15303)
Method: as §1, §2, §3

T4 sequence (Q9BYT3 whole entry): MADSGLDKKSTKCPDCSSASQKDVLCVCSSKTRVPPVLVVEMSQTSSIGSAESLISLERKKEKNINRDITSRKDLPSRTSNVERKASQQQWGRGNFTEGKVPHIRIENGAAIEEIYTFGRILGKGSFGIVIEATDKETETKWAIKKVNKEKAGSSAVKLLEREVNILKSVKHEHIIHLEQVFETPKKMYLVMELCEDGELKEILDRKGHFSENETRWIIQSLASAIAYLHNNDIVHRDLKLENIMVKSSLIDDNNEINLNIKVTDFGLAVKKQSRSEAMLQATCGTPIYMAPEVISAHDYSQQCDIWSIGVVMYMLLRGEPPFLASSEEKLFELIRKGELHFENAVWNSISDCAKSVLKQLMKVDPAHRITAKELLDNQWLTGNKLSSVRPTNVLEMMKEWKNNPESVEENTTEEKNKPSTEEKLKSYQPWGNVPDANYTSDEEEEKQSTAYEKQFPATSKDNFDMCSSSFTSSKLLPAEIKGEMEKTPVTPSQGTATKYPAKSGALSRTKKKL
T2 sequence (P51617 whole entry): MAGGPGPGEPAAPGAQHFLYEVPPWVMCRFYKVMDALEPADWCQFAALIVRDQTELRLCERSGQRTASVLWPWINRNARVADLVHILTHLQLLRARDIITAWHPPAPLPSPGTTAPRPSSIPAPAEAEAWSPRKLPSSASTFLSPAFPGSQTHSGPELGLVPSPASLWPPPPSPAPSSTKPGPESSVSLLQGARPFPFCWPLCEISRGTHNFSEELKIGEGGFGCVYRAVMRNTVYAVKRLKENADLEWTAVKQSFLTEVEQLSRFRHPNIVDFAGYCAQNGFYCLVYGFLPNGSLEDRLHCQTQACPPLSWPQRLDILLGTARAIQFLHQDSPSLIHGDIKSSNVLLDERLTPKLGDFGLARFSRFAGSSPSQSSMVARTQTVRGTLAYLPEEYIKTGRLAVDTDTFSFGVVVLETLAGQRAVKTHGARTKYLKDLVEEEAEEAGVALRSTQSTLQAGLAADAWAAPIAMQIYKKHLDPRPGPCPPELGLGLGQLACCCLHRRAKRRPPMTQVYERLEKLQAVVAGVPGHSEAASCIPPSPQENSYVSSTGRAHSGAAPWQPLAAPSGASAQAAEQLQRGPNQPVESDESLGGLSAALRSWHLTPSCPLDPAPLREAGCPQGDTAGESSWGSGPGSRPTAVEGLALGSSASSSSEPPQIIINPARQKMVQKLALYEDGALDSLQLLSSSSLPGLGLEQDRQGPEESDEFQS
Chain of PKCδ(h) (Q05655 whole entry): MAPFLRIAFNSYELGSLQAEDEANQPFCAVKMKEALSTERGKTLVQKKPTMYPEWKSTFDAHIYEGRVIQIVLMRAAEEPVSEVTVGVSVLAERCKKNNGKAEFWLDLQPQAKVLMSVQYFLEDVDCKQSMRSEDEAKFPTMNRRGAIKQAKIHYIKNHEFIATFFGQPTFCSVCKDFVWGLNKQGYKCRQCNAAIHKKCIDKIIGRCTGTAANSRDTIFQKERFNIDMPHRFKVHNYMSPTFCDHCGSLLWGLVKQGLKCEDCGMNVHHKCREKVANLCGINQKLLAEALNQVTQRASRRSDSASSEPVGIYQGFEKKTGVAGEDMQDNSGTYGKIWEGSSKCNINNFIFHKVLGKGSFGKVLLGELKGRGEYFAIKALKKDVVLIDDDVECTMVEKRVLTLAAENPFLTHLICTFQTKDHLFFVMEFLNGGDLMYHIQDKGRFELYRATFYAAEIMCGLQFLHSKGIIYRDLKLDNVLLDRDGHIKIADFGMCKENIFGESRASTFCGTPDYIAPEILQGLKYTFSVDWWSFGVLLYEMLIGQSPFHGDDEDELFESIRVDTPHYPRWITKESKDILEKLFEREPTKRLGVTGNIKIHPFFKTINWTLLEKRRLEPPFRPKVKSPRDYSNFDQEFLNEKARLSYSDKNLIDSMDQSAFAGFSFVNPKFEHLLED
Chain of ErbB4(h) (Q15303 26-1308): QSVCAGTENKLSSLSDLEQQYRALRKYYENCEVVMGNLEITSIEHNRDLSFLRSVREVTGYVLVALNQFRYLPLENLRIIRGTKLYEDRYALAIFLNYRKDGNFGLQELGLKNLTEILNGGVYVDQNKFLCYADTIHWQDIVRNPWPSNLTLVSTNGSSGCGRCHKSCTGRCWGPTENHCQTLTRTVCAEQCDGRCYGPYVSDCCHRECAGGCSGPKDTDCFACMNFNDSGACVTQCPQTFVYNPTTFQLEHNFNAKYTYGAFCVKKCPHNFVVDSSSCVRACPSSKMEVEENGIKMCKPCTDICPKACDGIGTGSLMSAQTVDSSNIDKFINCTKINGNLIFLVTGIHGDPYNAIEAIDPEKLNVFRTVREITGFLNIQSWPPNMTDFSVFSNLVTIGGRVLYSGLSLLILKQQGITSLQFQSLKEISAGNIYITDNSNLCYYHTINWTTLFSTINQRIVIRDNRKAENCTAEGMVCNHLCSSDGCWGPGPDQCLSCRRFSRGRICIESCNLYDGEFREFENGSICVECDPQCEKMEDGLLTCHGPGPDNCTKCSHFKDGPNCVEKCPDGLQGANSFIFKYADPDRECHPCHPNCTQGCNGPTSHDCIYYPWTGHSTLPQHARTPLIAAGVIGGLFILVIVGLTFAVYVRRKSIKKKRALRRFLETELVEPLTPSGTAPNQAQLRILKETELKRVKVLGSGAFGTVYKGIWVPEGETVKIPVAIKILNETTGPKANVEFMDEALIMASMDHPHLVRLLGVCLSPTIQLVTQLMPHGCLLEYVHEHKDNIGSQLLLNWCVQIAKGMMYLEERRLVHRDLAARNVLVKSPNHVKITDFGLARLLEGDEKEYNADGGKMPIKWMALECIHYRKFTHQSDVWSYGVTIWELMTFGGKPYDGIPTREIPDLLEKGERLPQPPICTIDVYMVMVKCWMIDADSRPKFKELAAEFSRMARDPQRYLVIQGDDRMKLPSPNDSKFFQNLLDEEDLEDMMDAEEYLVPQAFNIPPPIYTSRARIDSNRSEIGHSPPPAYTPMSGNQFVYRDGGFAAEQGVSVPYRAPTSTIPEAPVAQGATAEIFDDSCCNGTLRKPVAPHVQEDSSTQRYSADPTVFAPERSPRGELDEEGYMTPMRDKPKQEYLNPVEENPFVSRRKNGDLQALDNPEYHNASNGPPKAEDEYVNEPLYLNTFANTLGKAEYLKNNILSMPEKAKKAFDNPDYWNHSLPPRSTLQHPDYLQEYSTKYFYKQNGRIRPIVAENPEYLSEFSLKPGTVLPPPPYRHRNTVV
Chain of PKCβI(h) (P05771 whole entry): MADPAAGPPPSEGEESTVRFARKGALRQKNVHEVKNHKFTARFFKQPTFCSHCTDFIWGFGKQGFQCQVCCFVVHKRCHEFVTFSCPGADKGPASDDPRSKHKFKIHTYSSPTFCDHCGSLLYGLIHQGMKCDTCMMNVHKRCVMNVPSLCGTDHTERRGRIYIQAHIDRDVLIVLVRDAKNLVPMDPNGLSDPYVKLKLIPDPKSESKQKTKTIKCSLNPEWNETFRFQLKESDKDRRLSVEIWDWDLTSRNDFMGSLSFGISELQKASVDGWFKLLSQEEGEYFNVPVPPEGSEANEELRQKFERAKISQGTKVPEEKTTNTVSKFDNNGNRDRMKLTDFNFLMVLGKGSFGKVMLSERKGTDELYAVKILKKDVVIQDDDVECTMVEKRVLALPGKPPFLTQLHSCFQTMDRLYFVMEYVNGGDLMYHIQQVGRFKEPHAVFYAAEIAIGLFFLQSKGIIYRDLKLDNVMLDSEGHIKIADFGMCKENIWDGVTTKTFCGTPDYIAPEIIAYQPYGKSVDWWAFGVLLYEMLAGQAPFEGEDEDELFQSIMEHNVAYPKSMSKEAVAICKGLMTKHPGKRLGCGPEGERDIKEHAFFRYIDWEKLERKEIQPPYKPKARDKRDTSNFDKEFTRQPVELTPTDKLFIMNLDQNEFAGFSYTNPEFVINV

| Sequence | % activity (DCAMKL2(h)) [%] | % activity (IRAK1(h)) [%] | % activity (PKCγ(h)) [%] | % activity (PKCδ(h)) [%] | % activity (PKCβI(h)) [%] | % activity (LOK(h)) [%] | % activity (STK33(h)) [%] | % activity (CHK2(h)) [%] | % activity (cKit(V560G)(h)) [%] | % activity (JAK3(h)) [%] | % activity (ErbB4(h)) [%] |
| --- | --- | --- | --- | --- | --- | --- | --- | --- | --- | --- | --- |
| HRRIKAWLKKIKALARQLGVAA (Mammal) [MMI-0500] | 56 | 5 | 6 | 61 | 1 | 7 | 16 | 13 | 198 | 95 | 2 |
| YARAAARQARAKALNRQLGVA (Mammal) [MMI-0200] | 131 | 101 | 101 | 101 | 98 | 67 | 98 | – | – | – | 82 |
| YARAAARQARAKALARQLGVAA [MMI-0100] | 146 | – | – | – | – | 37 | 99 | – | 94 | 150 | 73 |
| FAKLAARLYRKALARQLGVAA [MMI-0300] | 81 | 95 | 89 | 101 | 78 | 37 | 45 | 66 | – | – | 40 |
| KAFAKLAARLYRKALARQLGVAA [MMI-0400] | 70 | 93 | 79 | 90 | 78 | 18 | 52 | 54 | 124 | 122 | 0 |
